Assay results taken from the supplement of paper PMC7125110.
± gives the standard error. For part of these data: This sample holds only a part of the variants without activity.

B1: glmS ribozyme (parent)
chain: AUAAAAGCGCCAGAACUACAGAAAUGUAGUUGACGAGGAGGAGGUUUAUCGAAUUUUCGGCGGAUGCCUCCAAA

What was measured:
Conditions in all cases: with glucosamine-6-phosphate
glucosamine-6-phosphate [1] = variants of: B1; assay: kcat; higher = faster cleavage; RNA array
Method in brief: (§1)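 Tiles of sequenced MiSeq chips were imaged over ~14 h at 37 °C. On them, barcoded ribozyme variants had been transcribed in situ by E. coli RNA polymerase and were tracked via a hybridised Cy3 probe while glucosamine-6-phosphate (40 μM to 10 mM) in HEPES/KCl/Mg(OAc)2 buffer flowed in. Per-tile medians, normalised to baseline and to non-cleaving reference variants, were fit to one- or two-exponential decays for kobs, and weighted Michaelis–Menten fits gave kcat and KM.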

glucosamine-6-phosphate [2] = variants of: B1; assay: self-cleavage kobs at 40 uM GlcN6P; higher = faster cleavage; RNA array
Method in brief: as §1

glucosamine-6-phosphate [3] = variants of: B1; assay: KM; higher = weaker cofactor use; RNA array
Method in brief: as §1

glucosamine-6-phosphate [4] = variants of: B1; assay: self-cleavage kobs at 640 uM GlcN6P; higher = faster cleavage; RNA array
Method in brief: as §1

glucosamine-6-phosphate [5] = variants of: B1; assay: self-cleavage kobs at 2500 uM GlcN6P; higher = faster cleavage; RNA array
Method in brief: as §1

glucosamine-6-phosphate [6] = variants of: B1; assay: self-cleavage kobs at 10000 uM GlcN6P; higher = faster cleavage; RNA array
Method in brief: as §1

glucosamine-6-phosphate [7] = variants of: B1; assay: self-cleavage kobs at 160 uM GlcN6P; higher = faster cleavage; RNA array
Method in brief: as §1

| Variant | kcat (glucosamine-6-phosphate [1]) [s⁻¹] | self-cleavage kobs at 40 uM GlcN6P (glucosamine-6-phosphate [2]) [s⁻¹] | KM (glucosamine-6-phosphate [3]) [µM] | self-cleavage kobs at 640 uM GlcN6P (glucosamine-6-phosphate [4]) [s⁻¹] | self-cleavage kobs at 2500 uM GlcN6P (glucosamine-6-phosphate [5]) [s⁻¹] | self-cleavage kobs at 10000 uM GlcN6P (glucosamine-6-phosphate [6]) [s⁻¹] | self-cleavage kobs at 160 uM GlcN6P (glucosamine-6-phosphate [7]) [s⁻¹] |
| --- | --- | --- | --- | --- | --- | --- | --- |
| G43C C68A | 1.06e-05 ± 2.2e-06 | < 1e-05 |  |  |  |  |  |
| A12U A64U | 0.00027 ± 2.8e-05 |  | 2420 ± 540 | 5.21e-05 ± 5.8e-06 | 0.000168 ± 1.8e-05 | 0.000211 ± 1.4e-05 |  |
| A42G U54A | 0.0214 ± 0.0099 | 0.000967 ± 0.00013 |  | 0.029 ± 0.0057 |  | 0.0172 ± 0.004 | 0.00396 ± 0.0011 |
| A6C A53U | 8.96e-05 ± 2.4e-06 |  | 3600 ± 220 |  | 3.64e-05 ± 7.4e-06 | 6.61e-05 ± 1.1e-05 |  |
| C11U G13C A52U C70U | 1.58e-05 ± 5.8e-06 | < 1e-05 |  |  |  | < 1e-05 |  |
| U31G | 0.0277 ± 0.0077 | 0.000403 ± 7.4e-06 | 3080 ± 1000 | 0.00394 ± 0.00013 | 0.0126 ± 0.00057 | 0.0227 ± 0.00081 | 0.00114 ± 4.7e-05 |
| A15U A53G | 0.00765 ± 0.0013 | 0.00019 ± 1.8e-05 | 1990 ± 520 | 0.0015 ± 0.0002 | 0.00373 ± 0.00055 | 0.00681 ± 0.00053 | 0.000531 ± 6.8e-05 |
| A14G U46A | 0.0109 ± 0.0043 | 0.000166 ± 3.1e-05 |  | 0.00157 ± 0.00055 | 0.0054 ± 0.001 | 0.00723 ± 0.0012 | 0.000271 ± 7.3e-05 |
| A39G C50A G51U C71G | 1.15e-05 ± 3.2e-06 |  |  |  |  |  |  |
| A6G G32U | < 1e-05 | < 1e-05 |  |  |  |  |  |
| G37C U69A | 1.84e-05 ± 4.8e-06 |  |  |  |  |  |  |
| A6G U69A | < 1e-05 |  |  |  |  | < 1e-05 | < 1e-05 |
| A6U U54A C67A | 2.15e-05 ± 2.2e-06 |  |  |  |  |  | < 1e-05 |
| U31C A52U | 7.02e-05 ± 1.4e-05 |  |  |  | 5.04e-05 ± 6e-06 | 5.66e-05 ± 7.1e-06 |  |
| U46G C71G | 0.000535 ± 0.00017 | 4.15e-05 ± 1.4e-05 |  | 0.000392 ± 7.6e-05 | 0.000849 ± 0.00013 | 0.000435 ± 5.5e-05 | 5.99e-05 ± 1.8e-05 |
| U55G C58A | 0.000783 ± 0.00021 |  | 7730 ± 3000 | 6.45e-05 ± 1e-05 | 0.000177 ± 2.2e-05 | 0.000461 ± 6.3e-05 | 2.76e-05 ± 1.3e-05 |
| U54G U65C | 0.00111 ± 0.0001 |  | 2390 ± 350 | 0.000211 ± 3.4e-05 | 0.000567 ± 9.8e-05 | 0.00091 ± 0.00012 | 7.61e-05 ± 1.2e-05 |
